Laboratory results taken from publication PMC2660430.

Target: PfOAT (recombinant ornithine aminotransferase) (P. falciparum strain 3D7) (UniProt Q6LFH8)
Sequence (Q6LFH8 whole entry): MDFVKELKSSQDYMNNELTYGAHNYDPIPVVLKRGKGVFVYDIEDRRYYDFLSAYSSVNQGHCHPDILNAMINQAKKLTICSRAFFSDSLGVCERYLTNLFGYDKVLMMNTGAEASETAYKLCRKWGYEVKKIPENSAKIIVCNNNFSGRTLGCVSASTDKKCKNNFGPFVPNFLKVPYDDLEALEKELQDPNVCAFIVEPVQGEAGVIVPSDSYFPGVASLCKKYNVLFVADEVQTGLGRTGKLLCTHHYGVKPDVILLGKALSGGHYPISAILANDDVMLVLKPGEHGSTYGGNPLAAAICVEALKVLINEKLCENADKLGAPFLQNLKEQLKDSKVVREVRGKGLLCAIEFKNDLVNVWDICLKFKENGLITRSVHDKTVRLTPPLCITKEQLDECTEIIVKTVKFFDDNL

PfTrx1 (wild type thioredoxin) (from UniProt Q7KQL8 1-104) (natural protein)
OAT activity (ornithine aminotransferase assay) with equimolar wild type thioredoxin: 75%
